The values that follow come from patent publication US20160159862A1 (PROTAGONIST THERAPEUTICS, published 2016).

Bridge positions count the residues as written; N and C are the ends. Square brackets hold non-standard residues; d marks the D form. Primed or numbered codes have the meaning given here. Ends that are not written are not given here. PEG13′ = Bifunctional PEG linker with 13 polyethylene glycol units; PEG25′ = Bifunctional PEG linker with 25 polyethylene glycol units; Phe(4-CF3) = N[C@@H](Cc1ccc(C(F)(F)F)cc1)C(=O)O; Phe(4-tBu) = CC(C)(C)c1ccc(C[C@H](N)C(=O)O)cc1; Bip = N[C@@H](Cc1ccc(-c2ccccc2)cc1)C(=O)O; Phe(4-CN) = N#Cc1ccc(C[C@H](N)C(=O)O)cc1; 1Nal = N[C@@H](Cc1cccc2ccccc12)C(=O)O; 2Nal = N[C@@H](Cc1ccc2ccccc2c1)C(=O)O; NMeR = CN[C@@H](CCCNC(=N)N)C(=O)O; Tic = O=C(O)[C@@H]1Cc2ccccc2CN1; β3hE = N[C@@H](CCC(=O)O)CC(=O)O; NMeK = CN[C@@H](CCCCN)C(=O)O; Pen = CC(C)(S)[C@H](N)C(=O)O; hLeu = CC(C)CC[C@H](N)C(=O)O Bounds are passed on as bounds.

First the molecules themselves.
B1: SEQ ID NO 157 (peptide)
peptide: Ac-[Pen][NMeR]SDFL[Pen][2Nal][dE]-NH2
modifications: disulfide 1-7 (inferred)
B2: SEQ ID NO 124 (peptide)
peptide: Ac-[Pen][NMeR]SDTL[Pen]H[dE][dK]-NH2
modifications: disulfide 1-7 (inferred); also: homodimer via DIG
B3: SEQ ID NO 158 (peptide)
peptide: Ac-XRSDXLXXE-NH2
modifications: disulfide 1-7 (inferred); not fully specified (residues 1, 2, 5, 7, 8, 9); printed as Ac-Pen-(N-Me-R)-S-D-Cha-L-Pen-(2-Nal)-e-NH2, disulfide
B4: SEQ ID NO 168 (peptide)
peptide: Ac-[Pen][NMeR]SDTL[Pen][Phe(4-tBu)][b‑H‑E][dK]-OH
modifications: disulfide 1-7 (inferred); also: homodimer via DIG
B5: SEQ ID NO 162 (peptide)
peptide: Ac-[Pen][NMeR]SDTF[Pen][2Nal][dE]-NH2
modifications: disulfide 1-7 (inferred)
B6: SEQ ID NO 169 (peptide)
peptide: Ac-[Pen][NMeR]SDTL[Pen][Phe(4-tBu)][b‑H‑E][dK]
modifications: disulfide 1-7 (inferred); not fully specified (residue 10); also: 4,4,4-trifluorobutyric acid attached after k
B7: SEQ ID NO 160 (peptide)
peptide: Ac-[Pen][NMeR]SDIL[Pen][2Nal][dE]-NH2
modifications: disulfide 1-7 (inferred)
B8: SEQ ID NO 163 (peptide)
peptide: Ac-[Pen][NMeR]SDTQ[Pen][2Nal][dE]-NH2
modifications: disulfide 1-7 (inferred)
B9: SEQ ID NO 118 (peptide)
peptide: Ac-[Pen][NMeR]SDTL[Pen][2Nal][dH][dK]-NH2
modifications: disulfide 1-7 (inferred); also: homodimer via DIG
B10: SEQ ID NO 159 (peptide)
peptide: Ac-[Pen][NMeR]SDLL[Pen][2Nal][dE]-NH2
modifications: disulfide 1-7 (inferred)
B11: SEQ ID NO 27 (peptide)
peptide: Ac-[Pen][NMeR]SDTL[Pen][2Nal][dY][dK]-NH2
modifications: disulfide 1-7 (inferred); also: homodimer via DIG
B12: SEQ ID NO 167 (peptide)
peptide: Ac-[Pen][NMeR]SDTL[Pen][Phe(4-tBu)][b‑H‑E][dK]-NH2
modifications: disulfide 1-7 (inferred); also: homodimer via IDA-PEG4-Biotin
B13: SEQ ID NO 28 (peptide)
peptide: Ac-[Pen][NMeR]SDTL[Pen][dW]E[dK]-NH2
modifications: disulfide 1-7 (inferred); also: homodimer via DIG
B14: SEQ ID NO 122 (peptide)
peptide: Ac-[Pen][NMeR]SDTL[Pen][Phe(4-CF3)][dE][dK]-NH2
modifications: disulfide 1-7 (inferred); also: homodimer via DIG
B15: SEQ ID NO 161 (peptide)
peptide: Ac-[Pen][NMeR]SD[hLeu]L[Pen][2Nal][dE]-NH2
modifications: disulfide 1-7 (inferred)
B16: SEQ ID NO 170 (peptide)
peptide: Ac-[Pen][NMeR]SDTL[Pen][Phe(4-tBu)][b‑H‑E][dK]
modifications: disulfide 1-7 (inferred); not fully specified (residue 10); also: hexanoic acid attached after k
B17: SEQ ID NO 139 (peptide)
peptide: Ac-[Pen][NMeR]SDTL[Pen][Phe(4-CN)][β3hE][dK]-NH2
modifications: disulfide 1-7 (inferred); also: homodimer via DIG
B18: SEQ ID NO 115 (peptide)
peptide: Ac-[Pen][NMeR]SDTL[Pen][1Nal][Tic][dK]-NH2
modifications: disulfide 1-7 (inferred); also: homodimer via DIG
B19: SEQ ID NO 21 (peptide)
peptide: [PEG25′]C[NMeR]SDTL[Pen]W-NH2
modifications: disulfide 2-8 (inferred)
B20: SEQ ID NO 165 (peptide)
peptide: Ac-[Pen][NMeR]SDTL[Pen][Phe(4-tBu)][b‑H‑E]-NH2
modifications: disulfide 1-7 (inferred)
B21: SEQ ID NO 1 (peptide)
peptide: Ac-[Pen][NMeR]SDTL[Pen]W[BetaE][dK]-NH2
modifications: disulfide 1-7 (inferred); also: dimer via DIG
B22: SEQ ID NO 156 (peptide)
peptide: Ac-[Pen][NMeR]SDVL[Pen][2Nal][dE]-NH2
modifications: disulfide 1-7 (inferred)
B23: SEQ ID NO 120 (peptide)
peptide: Ac-[Pen][NMeR]SDTL[Pen][2Nal][dR][dK]-NH2
modifications: disulfide 1-7 (inferred); also: homodimer via DIG
B24: SEQ ID NO 140 (peptide)
peptide: Ac-[Pen][NMeR]SDTL[Pen][2Nal][dT][dK]-NH2
modifications: disulfide 1-7 (inferred); also: homodimer via DIG
B25: SEQ ID NO 119 (peptide)
peptide: Ac-[Pen][NMeR]SDTL[Pen][2Nal][dL][dK]-NH2
modifications: disulfide 1-7 (inferred); also: homodimer via DIG
B26: SEQ ID NO 25 (peptide)
peptide: Ac-[Pen][NMeR]SDTL[Pen]HE[dK]-NH2
modifications: disulfide 1-7 (inferred); also: homodimer via DIG
B27: SEQ ID NO 123 (peptide)
peptide: Ac-[Pen][NMeR]SDTL[Pen]Y[dE][dK]-NH2
modifications: disulfide 1-7 (inferred); also: homodimer via DIG
B28: SEQ ID NO 135 (peptide)
peptide: Ac-[Pen][NMeR]SDTL[Pen][Bip][β3hE][dK]-NH2
modifications: disulfide 1-7 (inferred); also: homodimer via DIG
B29: SEQ ID NO 26 (peptide)
peptide: Ac-[Pen][NMeR]SDTL[Pen]HY[dK]-NH2
modifications: disulfide 1-7 (inferred); also: homodimer via DIG
B30: SEQ ID NO 128 (peptide)
peptide: Ac-[Pen][NMeR]SDTL[Pen]WE-OH
modifications: disulfide 1-7 (inferred)
B31: SEQ ID NO 20 (peptide)
peptide: [PEG13′]C[NMeR]SDTL[Pen]W-NH2
modifications: disulfide 2-8 (inferred)
B32: SEQ ID NO 127 (peptide)
peptide: XRSDTLXW
modifications: Ac-Pen-(N-Me-R)-S-D-T-L-Pen-W-OH; disulfide
B33: SEQ ID NO 166 (peptide)
peptide: Ac-[Pen][NMeR]SDTL[Pen][Phe(4-tBu)][b‑H‑E][dK]-NH2
modifications: disulfide 1-7 (inferred); also: homodimer via IDA
B34: SEQ ID NO 164 (peptide)
peptide: Ac-[Pen][NMeR]SDTY[Pen][2Nal][dE]-NH2
modifications: disulfide 1-7 (inferred)
B35: SEQ ID NO 136 (peptide)
peptide: Ac-[Pen][NMeR]SDTL[Pen][Bip]E[NMeK]-NH2
modifications: disulfide 1-7 (inferred); also: homodimer via DIG
B36: SEQ ID NO 121 (peptide)
peptide: Ac-[Pen][NMeR]SDTL[Pen][2Nal][Tic][dK]-NH2
modifications: disulfide 1-7 (inferred); also: homodimer via DIG
B37: SEQ ID NO 117 (peptide)
peptide: Ac-[Pen][NMeR]SDTL[Pen][2Nal][dF][dK]-NH2
modifications: disulfide 1-7 (inferred); also: homodimer via DIG
B38: SEQ ID NO 116 (peptide)
peptide: Ac-[Pen][NMeR]SDTL[Pen][1Nal][dT][dK]-NH2
modifications: disulfide 1-7 (inferred); also: homodimer via DIG

For the test, the target named is α4β7 integrin on human cells (human, UniProt P13612 34-1032; P26010 20-798). The experiment in a line: cell-based or functional assay.
Turning to B1, the “α4β7 cell (Hu) IC50” value is over 1000 nM.

Consider B2, for which the “α4β7 cell (Hu) IC50” value was over 100 nM.

As to B3, the “α4β7 cell (Hu) IC50” value is over 1000 nM.

As to B4, the “PBMC IC50” value was at most 10 nM and the “α4β7 cell (Hu) IC50” value was at most 10 nM.

As to B5, the “α4β7 cell (Hu) IC50” value is over 1000 nM.

Turning to B6, the “α4β7 cell (Hu) IC50” value is over 10 nM.

B7: the “α4β7 cell (Hu) IC50” value was over 1000 nM.

Regarding B8, the “α4β7 cell (Hu) IC50” value was over 1000 nM.

In the case of B9, the “α4β7 cell (Hu) IC50” value is over 25 nM.

In the case of B10, the “α4β7 cell (Hu) IC50” value was over 1000 nM.

Regarding B11, the “α4β7 cell (Hu) IC50” value is over 25 nM.

For the molecule B12, the “PBMC IC50” value is at most 10 nM and the “α4β7 cell (Hu) IC50” value is at most 10 nM.

As for B13, the “α4β7 cell (Hu) IC50” value is over 50 nM.

In the case of B14, the “α4β7 cell (Hu) IC50” value was over 50 nM.

In the case of B15, the “α4β7 cell (Hu) IC50” value is over 1000 nM.

As for B16, the “α4β7 cell (Hu) IC50” value is over 10 nM.

With B17, the “α4β7 cell (Hu) IC50” value was at most 10 nM.

B18: the “α4β7 cell (Hu) IC50” value was over 100 nM.

As for B19, the “α4β7 cell (Hu) IC50” value is over 50 nM.

Regarding B20, the “PBMC IC50” value is over 100 nM and the “α4β7 cell (Hu) IC50” value is over 10 nM.

For the molecule B21, the “α4β7 cell (Hu) IC50” value was over 50 nM.

Regarding B22, the “α4β7 cell (Hu) IC50” value is over 100 nM.

As to B23, the “α4β7 cell (Hu) IC50” value is over 1000 nM.

For B24, the “α4β7 cell (Hu) IC50” value is over 10 nM.

Regarding B25, the “α4β7 cell (Hu) IC50” value is over 500 nM.

Turning to B26, the “α4β7 cell (Hu) IC50” value is over 10 nM.

For the molecule B27, the “α4β7 cell (Hu) IC50” value was over 50 nM.

Consider B28, for which the “α4β7 cell (Hu) IC50” value was at most 10 nM.

As for B29, the “α4β7 cell (Hu) IC50” value was over 100 nM.

Take B30: the “α4β7 cell (Hu) IC50” value is over 50 nM.

As for B31, the “α4β7 cell (Hu) IC50” value was over 50 nM.

As for B32, the “α4β7 cell (Hu) IC50” value was over 100 nM.

In the case of B33, the “PBMC IC50” value was at most 10 nM and the “α4β7 cell (Hu) IC50” value was at most 10 nM.

As to B34, the “α4β7 cell (Hu) IC50” value was over 1000 nM.

Consider B35, for which the “α4β7 cell (Hu) IC50” value is at most 10 nM.

Turning to B36, the “α4β7 cell (Hu) IC50” value is over 100 nM.

B37: the “α4β7 cell (Hu) IC50” value is over 100 nM.

As for B38, the “α4β7 cell (Hu) IC50” value is over 50 nM.
